Source: IntAct's records for PubMed 15990873

B1: Protein MKS1 (Arabidopsis thaliana (Mouse-ear cress)), Q8LGD5 (parent)
chain: MDPSEYFAGGNPSDQQNQKRQLQICGPRPSPLSVHKDSHKIKKPPKHPAPPPNRDQPPPYIPREPVVIYAVSPKVVHATASEFMNVVQRLTGISSGVFLESGGGGDVSPAARLASTENASPRGGKEPAARDETVEINTAMEEAAEFGGYAPGILSPSPALLPTASTGIFSPMYHQGGMFSPAIPLGLFSPAGFMSPFRSPGFTSLVASPTFADFFSHIWDQD
partner: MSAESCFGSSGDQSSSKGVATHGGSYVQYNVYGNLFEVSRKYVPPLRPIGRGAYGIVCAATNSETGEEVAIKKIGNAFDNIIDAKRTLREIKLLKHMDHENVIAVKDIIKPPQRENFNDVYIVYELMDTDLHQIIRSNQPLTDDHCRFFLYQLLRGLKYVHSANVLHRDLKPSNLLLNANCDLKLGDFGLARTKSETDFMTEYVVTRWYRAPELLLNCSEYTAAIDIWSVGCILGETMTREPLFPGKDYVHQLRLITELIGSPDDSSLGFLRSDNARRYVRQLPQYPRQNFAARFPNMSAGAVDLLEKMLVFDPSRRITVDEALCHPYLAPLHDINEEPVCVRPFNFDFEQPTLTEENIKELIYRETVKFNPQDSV

Variants of: B1
Details: with mpk4_arath MPK4, Q39024

Row | effect of a mutation on the interaction | Variant
1 | decreasing interaction | S30A
